Assay results reported in the supplement of paper PMC9112550, “Optimization of the antimicrobial peptide Bac7 by deep mutational scanning” (BMC Biology, 2022).

Tested on: Escherichia coli TOP10
Experiment: shrunken log2 fold change of peptide-encoding DNA abundance (4.5 h post-induction vs induction); higher = less antimicrobial activity (less host growth inhibition)
Settings: time post-induction: 4.5 h; library: site-saturation at positions 5, 18, 19, 20
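Note: peptides expressed intracellularly from a pBAD plasmid library in pooled LB shake-flask culture, induced with 0.3% L-arabinose, DNA abundance read by NGS, three biological replicates, DESeq2 with apeglm shrinkage.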

Row | Sequence | shrunken log2 fold change
1 | RRIRKRPPRLPRPRPRPSPWPRP | 0.141
2 | RRIRVRPPRLPRPRPRPTRRPRP | 0.529
3 | RRIRSRPPRLPRPRPRPEQCPRP | -0.00373
4 | RRIRHRPPRLPRPRPRPHTFPRP | -0.386
5 | RRIRQRPPRLPRPRPRPCRAPRP | 0.106
6 | RRIRKRPPRLPRPRPRPDQPPRP | -0.018
7 | RRIRMRPPRLPRPRPRPINLPRP | -0.0139
8 | RRIRNRPPRLPRPRPRPWWNPRP | -0.141
9 | RRIRYRPPRLPRPRPRPDKYPRP | 0.0363
10 | RRIRERPPRLPRPRPRPKCTPRP | -0.882
11 | RRIRWRPPRLPRPRPRPSIVPRP | -0.00221
12 | RRIRFRPPRLPRPRPRPNTCPRP | -0.483
13 | RRIRSRPPRLPRPRPRPWFTPRP | -0.253
14 | RRIRCRPPRLPRPRPRPMIPPRP | -0.231
15 | RRIRERPPRLPRPRPRPTMIPRP | -0.597
16 | RRIRVRPPRLPRPRPRPRASPRP | 0.281
17 | RRIRLRPPRLPRPRPRPHHFPRP | -0.128
18 | RRIRCRPPRLPRPRPRPLEVPRP | -0.174
19 | RRIRSRPPRLPRPRPRPQHRPRP | -0.222
20 | RRIRLRPPRLPRPRPRPTPKPRP | 0.137
21 | RRIRPRPPRLPRPRPRPYLFPRP | -0.434
22 | RRIRWRPPRLPRPRPRPPVAPRP | 0.983
23 | RRIRCRPPRLPRPRPRPQGGPRP | -0.107
24 | RRIRTRPPRLPRPRPRPAQNPRP | 0.323
25 | RRIRLRPPRLPRPRPRPWMQPRP | 0.0547

Row | Sequence | shrunken log2 fold change
26 | RRIRYRPPRLPRPRPRPRRAPRP | 0.364
27 | RRIRRRPPRLPRPRPRPWTNPRP | 0.0119
28 | RRIRKRPPRLPRPRPRPCRQPRP | -0.166
29 | RRIRQRPPRLPRPRPRPFMHPRP | -0.0117
30 | RRIRLRPPRLPRPRPRPVTEPRP | 0.0237
31 | RRIRVRPPRLPRPRPRPQWDPRP | -0.0347
32 | RRIRIRPPRLPRPRPRPFNLPRP | -0.496
33 | RRIRRRPPRLPRPRPRPKQVPRP | 0.351
34 | RRIRQRPPRLPRPRPRPNTNPRP | -0.47
35 | RRIRPRPPRLPRPRPRPYNGPRP | -0.656
36 | RRIRLRPPRLPRPRPRPKSKPRP | -0.071
37 | RRIRGRPPRLPRPRPRPCWWPRP | 0.554
38 | RRIRPRPPRLPRPRPRPGLDPRP | 0.0198
39 | RRIRMRPPRLPRPRPRPCPGPRP | -0.000588
40 | RRIRARPPRLPRPRPRPTMTPRP | 0.9
41 | RRIRIRPPRLPRPRPRPKCHPRP | -0.199
42 | RRIRLRPPRLPRPRPRPRPMPRP | 0.725
43 | RRIRIRPPRLPRPRPRPAIFPRP | -0.102
44 | RRIRSRPPRLPRPRPRPPMMPRP | 0.0697
45 | RRIRNRPPRLPRPRPRPPYCPRP | 0.0775
46 | RRIRGRPPRLPRPRPRPEEWPRP | 1.7
47 | RRIRIRPPRLPRPRPRPMILPRP | -0.131
48 | RRIRSRPPRLPRPRPRPGGLPRP | 0.177
49 | RRIRDRPPRLPRPRPRPAPGPRP | 0.699
50 | RRIRHRPPRLPRPRPRPKQWPRP | 0.0913

Row | Sequence | shrunken log2 fold change
51 | RRIRFRPPRLPRPRPRPYNGPRP | -1.47
52 | RRIRLRPPRLPRPRPRPYINPRP | -0.584
53 | RRIRQRPPRLPRPRPRPHDWPRP | -0.372
54 | RRIRMRPPRLPRPRPRPHWMPRP | -0.137
55 | RRIRWRPPRLPRPRPRPIDYPRP | -0.235
56 | RRIRLRPPRLPRPRPRPFRLPRP | -0.0872
57 | RRIRLRPPRLPRPRPRPVANPRP | -0.0731
58 | RRIRWRPPRLPRPRPRPGCIPRP | 0.293
59 | RRIRGRPPRLPRPRPRPMSFPRP | 0.308
60 | RRIRQRPPRLPRPRPRPGRCPRP | 0.321
61 | RRIRFRPPRLPRPRPRPCHRPRP | -0.113
62 | RRIRIRPPRLPRPRPRPMANPRP | -0.104
63 | RRIRPRPPRLPRPRPRPGLQPRP | -0.0954
64 | RRIRWRPPRLPRPRPRPKYDPRP | -0.449
65 | RRIRARPPRLPRPRPRPDTSPRP | 0.435
66 | RRIRWRPPRLPRPRPRPPWDPRP | 0.131
67 | RRIRRRPPRLPRPRPRPAKSPRP | 0.242
68 | RRIRIRPPRLPRPRPRPVQWPRP | 0.0754
69 | RRIRRRPPRLPRPRPRPWITPRP | -0.0428
70 | RRIRGRPPRLPRPRPRPWCAPRP | 0.407
71 | RRIRIRPPRLPRPRPRPIYPPRP | -0.304
72 | RRIRVRPPRLPRPRPRPHHWPRP | -0.157
73 | RRIRDRPPRLPRPRPRPRGHPRP | 0.321
74 | RRIRVRPPRLPRPRPRPALKPRP | 0.253
75 | RRIRDRPPRLPRPRPRPVRPPRP | 1.07

Row | Sequence | shrunken log2 fold change
76 | RRIRGRPPRLPRPRPRPGGGPRP | 1.33
77 | RRIRERPPRLPRPRPRPCWDPRP | -0.00421
78 | RRIRLRPPRLPRPRPRPENHPRP | -0.126
79 | RRIRGRPPRLPRPRPRPNLGPRP | 0.191
80 | RRIRKRPPRLPRPRPRPGPTPRP | 0.65
81 | RRIRYRPPRLPRPRPRPPKGPRP | -0.163
82 | RRIRRRPPRLPRPRPRPGWWPRP | 0.478
83 | RRIRNRPPRLPRPRPRPQANPRP | 0.202
84 | RRIRDRPPRLPRPRPRPTTYPRP | -0.0974
85 | RRIRTRPPRLPRPRPRPCRPPRP | -0.415
86 | RRIRLRPPRLPRPRPRPLWGPRP | 0.151
87 | RRIRTRPPRLPRPRPRPMFHPRP | -0.52
88 | RRIRWRPPRLPRPRPRPGSQPRP | 0.584
89 | RRIRDRPPRLPRPRPRPFNQPRP | -0.733
90 | RRIRYRPPRLPRPRPRPCSYPRP | -0.0018
91 | RRIRCRPPRLPRPRPRPPVAPRP | 0.443
92 | RRIRYRPPRLPRPRPRPHYFPRP | -0.833
93 | RRIRVRPPRLPRPRPRPKEDPRP | 0.0522
94 | RRIRMRPPRLPRPRPRPMPGPRP | 0.0377
95 | RRIRNRPPRLPRPRPRPRLWPRP | 0.0283
96 | RRIRPRPPRLPRPRPRPIYHPRP | -0.466
97 | RRIRQRPPRLPRPRPRPYENPRP | 0.00377
98 | RRIRGRPPRLPRPRPRPAGYPRP | 0.164
99 | RRIRSRPPRLPRPRPRPSMWPRP | 0.149
100 | RRIRLRPPRLPRPRPRPDTAPRP | 0.0121

Row | Sequence | shrunken log2 fold change
101 | RRIRGRPPRLPRPRPRPNRVPRP | 0.0309
102 | RRIRWRPPRLPRPRPRPVNIPRP | 0.0116
103 | RRIRFRPPRLPRPRPRPKLDPRP | 0.0288
104 | RRIRKRPPRLPRPRPRPPLWPRP | 0.931
105 | RRIRIRPPRLPRPRPRPKKRPRP | -0.169
106 | RRIRYRPPRLPRPRPRPKIMPRP | -0.131
107 | RRIRMRPPRLPRPRPRPAFSPRP | 0.0185
108 | RRIRSRPPRLPRPRPRPIEDPRP | 0.0359
109 | RRIRNRPPRLPRPRPRPSFPPRP | -0.19
110 | RRIRDRPPRLPRPRPRPKLIPRP | 0.088
111 | RRIRCRPPRLPRPRPRPNEKPRP | -0.00225
112 | RRIRGRPPRLPRPRPRPQMLPRP | -0.0638
113 | RRIRVRPPRLPRPRPRPLTSPRP | 0.0775
114 | RRIRFRPPRLPRPRPRPINHPRP | -0.511
115 | RRIRERPPRLPRPRPRPSHYPRP | -0.611
116 | RRIRLRPPRLPRPRPRPAIAPRP | 0.118
117 | RRIRNRPPRLPRPRPRPKWFPRP | 0.00131
118 | RRIRARPPRLPRPRPRPVGFPRP | 0.516
119 | RRIRNRPPRLPRPRPRPTKTPRP | 0.0911
120 | RRIRGRPPRLPRPRPRPNSVPRP | -0.0052
121 | RRIRERPPRLPRPRPRPPCCPRP | 0.00664
122 | RRIRNRPPRLPRPRPRPVNLPRP | -0.0237
123 | RRIRVRPPRLPRPRPRPCILPRP | -0.208
124 | RRIRLRPPRLPRPRPRPYHPPRP | -0.00992
125 | RRIRNRPPRLPRPRPRPTANPRP | 0.0124

Row | Sequence | shrunken log2 fold change
126 | RRIRDRPPRLPRPRPRPRKGPRP | 0.0785
127 | RRIRWRPPRLPRPRPRPWEKPRP | 0.624
128 | RRIRARPPRLPRPRPRPNQDPRP | 0.116
129 | RRIRRRPPRLPRPRPRPMPIPRP | 0.25
130 | RRIRNRPPRLPRPRPRPHMPPRP | -0.0765
131 | RRIRGRPPRLPRPRPRPPYLPRP | -0.0342
132 | RRIRCRPPRLPRPRPRPYQDPRP | -0.725
133 | RRIRSRPPRLPRPRPRPYRQPRP | -0.402
134 | RRIRYRPPRLPRPRPRPQYYPRP | -1.52
135 | RRIRLRPPRLPRPRPRPAIYPRP | -1.28
136 | RRIRCRPPRLPRPRPRPQKSPRP | -0.554
137 | RRIRARPPRLPRPRPRPTCRPRP | 0.592
138 | RRIRARPPRLPRPRPRPMWGPRP | 0.115
139 | RRIRNRPPRLPRPRPRPFKDPRP | -0.327
140 | RRIRGRPPRLPRPRPRPVVLPRP | 0.4
141 | RRIRARPPRLPRPRPRPARVPRP | 0.813
142 | RRIRVRPPRLPRPRPRPLPWPRP | 0.196
143 | RRIRHRPPRLPRPRPRPKYFPRP | -0.0202
144 | RRIRNRPPRLPRPRPRPLPYPRP | -0.542
145 | RRIRMRPPRLPRPRPRPEQLPRP | 1.94
146 | RRIRFRPPRLPRPRPRPIPSPRP | -0.0572
147 | RRIRKRPPRLPRPRPRPDGFPRP | 0.0522
148 | RRIRPRPPRLPRPRPRPKMRPRP | 0.903
149 | RRIRCRPPRLPRPRPRPCEVPRP | -0.251
150 | RRIRGRPPRLPRPRPRPWCGPRP | 0.58
